{
  "source": "the nanobody polyreactivity screen of Harvey et al. (2022)",
  "data": [
    {"assay": "yeast display, Sf9 membrane polyspecificity reagent, FACS + sequencing; frameworks hold sequencing errors", "in_short": "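Nanobodies from a synthetic yeast display library (Saccharomyces cerevisiae BJ5465), induced 36–48 hours with galactose, were stained 1 hour at 4 °C with 10% biotinylated, detergent-solubilized Sf9 membrane reagent, enriched on streptavidin microbeads, then FACS-sorted. Anti-HA (expression) and streptavidin (reagent binding) fluorescence set low and high (top ~1%) gates. Polyreactivity labels come from the gate of origin. Genes were colony-PCR amplified, MiSeq 2 × 250 sequenced and filtered by CDR length.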", "values": [
      {"sequence": "QVQLVESGGGLVQAGGSLRLSCAASGSIFTPNAMGGYRQAPGKERELVAAISSSSDRTYYADSVKGRFTISRDNAKNTVYLQMNSLKPEDTAVYYCAAYAQQRYYWGQGTQVTVSS", "polyreactivity (PSR sort gate)": "high polyreactivity"},
      {"sequence": "QVQLVESGGGLVQAGGSLRLSCAASGGIFSENAMGWYRQAPGKERELVAVITTSGGSTYYADSVKGRFTISRDNAKNTVYLQMNSLKPEDTAVYYCAADVLSWEYDYWGQGTQVTVSS", "polyreactivity (PSR sort gate)": "low polyreactivity"},
      {"sequence": "QVQLVESGGGLGQAGGSLRLSCAASGSIFDWYAMGWYRKAPGKEGELVAAISSGDSTYYADSVKGRFTISRDNAKNTFYLQMNSLKPEDTAVYYCAAVTKLSGIRYNYWGQGTQVTVSS", "polyreactivity (PSR sort gate)": "low polyreactivity"},
      {"sequence": "QVQLVESGGGLVQAGGSLRLSCAASGSTLYGYAMGWYRQAPGKVRELVAAISSRAVRTYYADSVKGRFTISRDNAKNTVYLHMNSLKPEDTAVYYCAAKRSYAYEYWGQGTQVTVSS", "polyreactivity (PSR sort gate)": "high polyreactivity"},
      {"sequence": "QVQHVESGGGLVQAGGSLSLSCAASGFIFSAYAMGWYRRAAGKERKLVDAITRSGGITDYADSVKGRFTISRDIAKNTVYLQMNSLKPEDTADYYCAALRVQQVKSYYYWGQGTQVTVSW", "polyreactivity (PSR sort gate)": "high polyreactivity"},
      {"sequence": "QVHLVVSWGGLVQAGGSLRLSCSASGITFKRYAMGWYRQSRGNERELVAAINWNGCGTYYADSVKGRFTISRDNAKNTVYLQMNSLKPEDTAVYYCAAGLAYWYWRGYDYWGQGTQVTVSS", "polyreactivity (PSR sort gate)": "high polyreactivity"},
      {"sequence": "QVQLVESGGGLVQAGGSLRLSCAASGRIFTYYAMGWYRQAPGKEREFVAAISRSGGSTYYADSVKGRFTISRDNAKNTVYFQMNSLKPEDTAVYSCAADPPYRGRRGFDHNYWGQGTQVTVSS", "polyreactivity (PSR sort gate)": "high polyreactivity"},
      {"sequence": "QVQLVESGGGLVQSGGSLRLSCAASGSINVYYAMGLYRQEPGKERDLVAAISASGGSTYYADSVKGRFTISRDNAKNTFYLQMKSLKPEDTAVYYCAADTFYSYYDMDYWGQGTQVTVSS", "polyreactivity (PSR sort gate)": "low polyreactivity"},
      {"sequence": "QVQLVDSGGGLVQAGGSLRLSCAASGRIFYAYAMGGYRQAPGKERELVARISASGGNTYYADSVKGRFTISRDNAKNSVYLQMNSLKPEDTAVYYCNKLFWYGRQYDYWGQGTQVTVSS", "polyreactivity (PSR sort gate)": "high polyreactivity"},
      {"sequence": "QVQLVETGGGLVQAGGSLRLSCAASGSTFYYNAMGWYRQAPGKERELVARITRSGGSTYADSVKGRFTISRDNAKNSVYLQMNSLKPEVTAVYYWNADAYGTPEFTSYALRYDYWGQGTQVTVSS", "polyreactivity (PSR sort gate)": "low polyreactivity"},
      {"sequence": "QVQLVESGGGLVQAGGSLRLSCAASGLTFYRYAMGWYRQAPGKERELVAAIRSNVVTTYYADSVKGRFTISRDNAKNTVYLQMNSLKPEDTAVYYCNAVSYSFPIHRVRPTWYDYWGQGTQVTVSS", "polyreactivity (PSR sort gate)": "high polyreactivity"},
      {"sequence": "QVQLVESGGGIFQAGGSLRLSCAASGSTFDYNAMGWYRQAPGKERELVADITGSGASTSYADSVKGRFTISRDNEKNTVYLQMKILKPEDTAVYYCNADDSYFYELYGYWGQGTQVTVSS", "polyreactivity (PSR sort gate)": "low polyreactivity"},
      {"sequence": "KVQLVESGGGLVQAGGSLRLSCAASGRTFWYYAMGWYRLSPGKERELVAVITSVSSTYYADSVKGRFTISRDNAKNTVYLQMNSLKPEDTAVYYCAVGRTYRRYSAASYNYWGQGTQVTVSS", "polyreactivity (PSR sort gate)": "high polyreactivity"},
      {"sequence": "QDQHEESGGGLVQAGGSLRLICAASGLIFPRYAMGWYRPAPGKERELVAAITRGGSTYYADSVKGRFTISRDNAKNTVYLQMNSLKPEDTAVYYCNAELPVHWSWYDYWGQGTQVTVSS", "polyreactivity (PSR sort gate)": "low polyreactivity"},
      {"sequence": "QVQLVESGGGLVQAGGSLRLSCAASGITFGAYAMGWDRQAPGKERELVASISSSGSTYADSVKGRFTISRDNAKTTVYLQMNSLKPEDTAVYYCNAVGFQANDYNYWRQGTQVTVSS", "polyreactivity (PSR sort gate)": "low polyreactivity"},
      {"sequence": "QVQLVESGGGLVQAGGSLRLSCAASGRIFGANAMGWYRQAPGKERELVAVITGGGGTYYADSVKGRFTISRDNAKNTVYLQMNRLKPEETAVYYCDWPRYYYTYPSHPMDYWGQGTQVTVSS", "polyreactivity (PSR sort gate)": "low polyreactivity"},
      {"sequence": "QVQLVESGGGLVQAGGSLRLSCAASGRTFIGNAMGWYRQAPGKERELVATITSSAGTTYYADSVKGRFTISRDNAKNTVYLQMNSLKPEDTAVYYCAKRIWRSYPYRAYYSEFGYWGQGTQVTVSS", "polyreactivity (PSR sort gate)": "high polyreactivity"},
      {"sequence": "QVQLVESGGGLVQAGGSLRLSCAASGSTFSANTMGWYRQAPGKERELVAAISSSGVGTRYADSVKGRFTISRDNAKNTVYLQMNSLKPEDTAVYYCNADLYGGGDKSVISGLNGEYEYWGQGTQVTVSS", "polyreactivity (PSR sort gate)": "low polyreactivity"},
      {"sequence": "QVQLVESGGGLVQAGGSLRLTCAASGSIYGVYAMGWSIQGPGKEREWVAVISWNGGRTYYADSVKGRFTISRDNAKNTVYLQMNSLKPEDTAVYYCAADTSYRYRDYHVDYWGQGTQVTVSS", "polyreactivity (PSR sort gate)": "high polyreactivity"},
      {"sequence": "QVQLVESGGGLVQAGGSLRLSCAASGSTFYGYAMGWSRQAPGKERELDAVINYRGDRTYYADSVKGRFTISRDNAKNTVYLQMNSLKPEDTAVYYCAARYRVYYLPGYEYWGQGTQVTVSS", "polyreactivity (PSR sort gate)": "high polyreactivity"},
      {"sequence": "QVQLVESGGGLVQAGGSLRLSCAASGSIFGPYAMGWYRQAPGKERELVATITSGGRTYYADSVKGRFTISRDNAKNTVYLQLNSLKPEDTAVYYCAAAGKGRYHFRSTMDYWGQGTQVTVSS", "polyreactivity (PSR sort gate)": "high polyreactivity"},
      {"sequence": "QVQLVESAGGLGQAGGSLRLSCAASGRIIVRNTMGWYRQAPGKDRELVARITGRGGTTYYADSVKGRFTISRDYAKNPVYFQMNSLKPEDTADYYCKAGKYLRLDPVGPNYSRKYGYWGQGTQVTVSS", "polyreactivity (PSR sort gate)": "low polyreactivity"},
      {"sequence": "QVQLVESGGGLVQAGGSLRLSCAASGLTFVQNAMGWYRQAPGKERELVAAISTSGGSTYYADSVKGRFTISRDNAKNTVYLQMNSLKPEDTAVYYCAAYPRSWWRGYDYWGQGTQVTVSS", "polyreactivity (PSR sort gate)": "high polyreactivity"},
      {"sequence": "QVQLGESGGGLVQAGGSLSLSCAASGSIFRNYAMGWYRPAPGKEWELVAAITRGGPTNYADSVKGRVTISRDHAKNTVYLQMNRQKPEDTAVYYCNAAWRLGWTHWETTRYVYWGQGTHVTVSS", "polyreactivity (PSR sort gate)": "high polyreactivity"},
      {"sequence": "QVQLVESGGGLFQAGGSLRLSCAASGLTFNRYAMGWSRQAPGKERELVAAIDYSGGRTYYADSVKGRFTISRDYAKNTVYLQMNSLKPEDTAVFYCNALTRSVSRLLYDFWGQGSQVTVSS", "polyreactivity (PSR sort gate)": "high polyreactivity"},
      {"sequence": "QVQLVESGGGLVQAGGSLRISCAASGITFSENDMGWYRQAPGKERELDAAISSGDGTNYADSVKGRFTISRDNEKNTVYLQMNSLKPEDTAVYYCNADGFVDWAWSEQYIPNIHLDYWGQGTQVTVSS", "polyreactivity (PSR sort gate)": "low polyreactivity"},
      {"sequence": "QVQLVESGGGLVQAGGSLRLSCAASGSIFVKYAMGWYRQATGKERELVASITGRGGSTYYADSVKGRFTISRDNAKNTVYFQMNSLIPEDTAVYYCAARVASRHGWHNYWGQGTQVTVSS", "polyreactivity (PSR sort gate)": "high polyreactivity"},
      {"sequence": "QVQLVESGGGLVQAGGSLRLSCAASGRTFYAYAMGWYRQAPGKERELVAVITRSGGRTNYADSVKGRFTISRDNAKNTVYLQMNSLKPEDTAVYYCAARADWRQVSFYYWGQGTQVTVSS", "polyreactivity (PSR sort gate)": "high polyreactivity"},
      {"sequence": "QVQLVESGGGLVQAGGSLRLSFAGSGYIFTSYAMRWYRQAPGKERQLVARINYSGGGTSYADSVKGRFTISRDNAKHTVYLQMNSLKQEDTAVYYCAARSYWFRPTKYNYWGQGTQVTVSS", "polyreactivity (PSR sort gate)": "high polyreactivity"},
      {"sequence": "QVQLVESGGGLVQAGGSLRLSCAASGSIFPAYAMGWYRQAPGKERELVASITGSGGSTYYADSVKGRFTISRDNAKNTVYLQMNSLKPEDTAVYYCNARYYVYSATVDRYYHFYYWGQGTQVTVSS", "polyreactivity (PSR sort gate)": "high polyreactivity"},
      {"sequence": "QVQLVESGGGLVQAGCSLRLSCAASGRIFNWYGMGWYRQAPGKERELVAGITYSASRTYYADSVKGRFTISRDNAKNTVYLQMNSLKPEDTAVYYCAAGRYHRDDGYDYWGQGTQVTVSS", "polyreactivity (PSR sort gate)": "low polyreactivity"},
      {"sequence": "QVQLVESGGGLVQAGGSLRLSCASSGIIFAQYTMGWYRQEPGKERELVAAINRNGGSTYYADSVKGRCTISRDNAKHTVYLQMNSLKPEDTAVYYCTKDIERYVRIYDSWGQGTQVTVSS", "polyreactivity (PSR sort gate)": "low polyreactivity"},
      {"sequence": "KVQLVESGGGLVQAGGSLGLSCAASGSIFPSNFMGCYRQAPGKERELFAAISNTGSTYYADSVKGRVTISRDNAKNTVYLQMNSLKPEDTAVYYCAAEYWSYAHGGQLYGYDYWGQGSQVTVSS", "polyreactivity (PSR sort gate)": "low polyreactivity"},
      {"sequence": "QVQLVESGGGLVQAGGSLRLSCAAYGSTFRSYAMGWYRQAPGKERELVAAISYSGDSTYYADSVKGRFTISRDNAKNTVYLQMNSLKPEDTAVYYCAALRDWDFQCEPWKRYGYWGQGTLVTVSS", "polyreactivity (PSR sort gate)": "low polyreactivity"},
      {"sequence": "QVQLVESGGGLVQAGGSLRLSCAASGSTFGVNAMGWYRQAPGKERELVASIRKRGGTTYYADSVKGRFTISRDNAKNTVYLQMNSLKPEDTAVYYCAAQYGDEVDYWGQGTQVTVSS", "polyreactivity (PSR sort gate)": "high polyreactivity"},
      {"sequence": "QVQLVESGGGLVQAGGSLRLSCSASGSTFTAYAMGWSRQAPGKERELVATISDSGGSTYYADSVKGRFTISRDNAKNTVYLQMNSLKPEDTAVYYCAADVYSYFYQVVYTFDYWGQCTQVTVSS", "polyreactivity (PSR sort gate)": "low polyreactivity"},
      {"sequence": "QVQLVESGGGLVQAGGSLRLSCAASGITFDYYAMGWYRQEPGKERELVAAISSAGRTYYADSVKGRFTISRDNAKNTVYLQMNSLKPEDTAVYYCAATAFSYYPYHGDYWGQGTQVTVSS", "polyreactivity (PSR sort gate)": "high polyreactivity"},
      {"sequence": "QVQLVESGGGLVQAGGSLRLSCAASGSTFGANALGWYRQAPGKERELVAAITGGSTFYADSVKGRFTISRDNAKNTVYLQMNSLKPEDTSVYYCAVDYTYSYVDYWSEYDYWGQGTQVTVSS", "polyreactivity (PSR sort gate)": "low polyreactivity"},
      {"sequence": "QVQLVESGGGLVQAGGSLRLSCAASGSIFVYNAMGWYRQAPGKERELVAAISSTGGSTYYADSVKGRFTISRDNAKNTVYLQMNSLKPEDTAVYYCARQGRYTRGDYWGQGTQVTVSS", "polyreactivity (PSR sort gate)": "high polyreactivity"},
      {"sequence": "QDQHVESGGGLVQAGGSLRLSCAASGFIISYYDMGWYRQPPGHESELVATIDWSGGSTYYADSVKGRFTISRDNAKNTVYLQLNSLKPEDTAVYYCNADWIFGSAPSGRYKYDYWGQGTQVTVSS", "polyreactivity (PSR sort gate)": "low polyreactivity"}
    ]}
  ]
}
